Assay results taken from paper PMC5877399 (Biomacromolecules, 2014).
*: point of attachment. Ru(bipy)3 = tris(bipyridine)ruthenium complex attached to the Lys ε-amine via an NHS ester; Palmitoyl = CCCCCCCCCCCCCCCC(=O)*

B1: PA1-Ru(bipy)3, palmitoyl-IAAAEEEEK[Ru(bipy)3]-NH2 (peptide)
peptide: Palmitoyl-IAAAEEEEK(Ru(bipy)3)-NH2
modifications: also: Ru(bipy)3 via NHS ester linker, Ru complex
B2: PA2-Ru(bipy)3, palmitoyl-MAAAEEEEK[Ru(bipy)3]-NH2 (peptide)
peptide: Palmitoyl-MAAAEEEEK(Ru(bipy)3)-NH2
modifications: also: Ru(bipy)3 via NHS ester linker, Ru complex
B3: PA2-Gd(DO3A), palmitoyl-MAAAEEEEK(DO3A:Gd)-NH2 (peptide)
peptide: MAAAEEEEK
modifications: not fully specified; palmitoyl on the N-terminus; K(DO3A:Gd); C-terminal amide (NH2)

Legend:
[1] = target: T1, PA1-Gd(DO3A), palmitoyl-IAAAEEEEK(DO3A:Gd)-NH2 (not fully specified (residue 9); printed as palmitoyl-IAAAEEEEK(DO3A:Gd)-NH2; also: Gd complex of DO3A); experiment: fluorescence polarisation
T1 peptide: Palmitoyl-IAAAEEEEK-NH2

[2] = target: B3; experiment: fluorescence polarisation
[3] = target: the molecule itself; experiment: circular dichroism spectroscopy

**Q.** Does B1 bind [1]?
**A.** binds

**Q.** Does B2 bind [2]?
**A.** binds

**Q.** Does B3 bind [3]?
**A.** binds
